Here are results for one protein from paper PMC8953729.

In data set [1] the target is Nterm1 (position 1, -----MDHSHH). The data set can be described thus: potentiometry.
Another data set has as its target Tyr11 (position 11, …--). Description: potentiometry. The following applies: metal-free peptide.

Consider MDHSHHMGMSYMDS, for which the pKa is given as 7.33 in data set [1] (298 K, 0.1 mol dm^-3 (KNO3), mononuclear Ag+ complex ([AgLH2] to [AgLH]), Ag+/peptide ratios 1:1, 1:2 and 2:1); 7.63 in data set [1] (298.0 ± 0.2 K, 0.10 M (KNO3), none (titration with 0.1 M KOH under argon), metal-free peptide); 7.46 in data set [1] (metal-free peptide, cited from earlier work); 9.64 in the data set with Tyr11 (position 11, …--) (298.0 ± 0.2 K, 0.10 M (KNO3), none (titration with 0.1 M KOH under argon)); 9.84 with Tyr11 (position 11, …--) (cited from earlier work).

As usually defined, the pKa is the pH at which an ionisable group is half protonated.
